Measurements reported in patent US10532106B2 (priority 2014, dated 2020).
Entries after “also recorded” stand apart in the source; their conditions may differ. Like-named read-outs stand apart in the source and are kept apart here. Numbered stars: 1 amine (or outer) side, 2 acyl side, 3 side chain; on linkers, the order of the positions; unused ones are H or OH. Bridge positions count the residues as written; N and C are the ends. Square brackets hold non-standard residues; d marks the D form. Peptide text beside a SMILES is read from it. * marks the point of attachment. X1 = COc1cc2cc(c1Cl)N(C)C(=O)C[C@H](OC(=O)[C@H](C)N(C)C(=O)CCC(C)(C)SSCCCC(=O)*)[C@]1(C)O[C@H]1[C@H](C)[C@@H]1C[C@@](O)(NC(=O)O1)[C@H](OC)/C=C/C=C(\C)C2; X2 = COc1cc2cc(c1Cl)N(C)C(=O)C[C@H](OC(=O)[C@H](C)N(C)C(=O)CCC(C)SSC(C)CCC(=O)*)[C@]1(C)O[C@H]1[C@H](C)[C@@H]1C[C@@](O)(NC(=O)O1)[C@H](OC)/C=C/C=C(\C)C2; 1Nal = N[C@@H](Cc1cccc2ccccc12)C(=O)O; TBMB = c1c(C[*:1])cc(C[*:3])cc1C[*:2]; Tle = CC(C)(C)[C@H](N)C(=O)O; βAla = NCCC(=O)O; Sar = CNCC(=O)O

Key:
[1] = Plasma stability, quantitative LC-MS (Method #2); assay type: in vitro ADME, human; conditions: for degradation half-life in human plasma: refers to Table 16
Description: (§1) […] […] Prior to LC-MS analysis, samples were defrosted, and mixed with 3 volumes (here, 120 μL) of 1:1 acetonitrile/MeOH water. The milky suspensions were centrifuged for 30 min at 13000 rpm, and peptide-containing supernatants were quantitated for doubly/triply charged species and MS/MS fragments thereof using a Waters Xevo TQ-D instrument, while using a plasma extracted standard curve of the same peptides as a reference. The half-life of degradation in plasma was used to assess the comparative stability of the molecules.

[2] = cited from earlier work; for reduction in sensitivity to a reducing agent such as dithiothreitol (compared to the non-hindered disulphide): in the antibody drug conjugate context; for Relative Stability to DTT (ADC): values relate to antibody drug conjugates containing the disulphide linker
[3] = Relative stability to DTT of Bicycle Drug Conjugates, quantitative LC-MS; assay type: physicochemical; conditions: Bicycle Drug Conjugates containing the disulphide linker
Description: The four BDCs were assessed for several in vitro parameters such as retention of potency to the human MT1-MMP hemopexin domain, stability in ex vivo mouse, rat and human plasma, and stability to reducing agents such as dithiothreitol.

[4] = Plasma stability, quantitative LC-MS; assay type: in vitro ADME, rat; conditions: Table 16; incubation up to 24 hrs, 4 μM
MT1-MMP hemopexin domain = target: T1, MT1-MMP hemopexin domain (Homo sapiens, UniProt P50281); assay: Competition assay using fluorescence polarisation; assay type: binding; conditions: for Kd: Table 16, read-out: Kd (nM) (Hemopexin domain)
T1 construct: residues Cys319-Gly511 from the human gene; His6 (N); made in house; host or cells: HEK293 (transient), pEXPR-IBA42 vector
Summary of the method: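 Pre-formed PEX–fluorescent tracer complex titrated with non-fluoresceinated bicyclic peptide, which displaces tracer and lowers fluorescence polarisation. Competitor Kd obtained by fitting to the cubic-equation solution for tracer/titrant/protein equilibria, using tracer Kd from separate direct-binding FP.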

[5] = Plasma stability, quantitative LC-MS (Method #2); assay type: in vitro ADME, mouse; conditions: for t1/2 (hrs) (mouse plasma): Table 16, incubation up to 24 hrs, 4 μM
Description: as §1

[6] = system: human lung squamous cell carcinoma line EBC-1; assay: Efficacy in EBC-1 xenograft mice; assay type: in vivo, mouse
Description: All BDCs containing the stabilised bicycle core sequence were tested for their efficacies in in vivo mouse xenograft models, using the human lung squamous cell carcinoma line EBC-1.
The area under the curve (AUC) of tumour volume over time and BDC was taken and plotted against the corresponding dose group (FIG. 13).

[7] = Degradation products in mouse plasma by MALDI-TOF (Method #1); assay type: in vitro ADME
Description: A rapid plasma stability profiling assay was developed that employed mass spectrometric detection (MALDI-TOF, Voyager DE, Applied Biosystems) of the parent mass as well as plasma-protease induced fragments thereof. By assessing the nature of the fragments, preferred cleavage sites can be determined. Here, a 1-1.5 mM peptide stock (in DMSO) was directly diluted into mouse/rat/human plasma (Sera labs, using citrate as anticoagulant), giving a final concentration of 50 μM peptide, and incubated for up to 48 hrs at 37° C. 5 μL samples were taken at appropriate time points and frozen at −80° C. For analysis, the samples were defrosted, mixed with 25 μL of 3:3:1 acetonitrile:methanol:water, and centrifuged at 13 k for 5 min. 5 μL of the peptide-containing supernatant was aspirated and mixed with 30 mM ammonium bicarbonate in a 1:1 mixture of acetonitrile:H2O. 1 μL of this was then spotted on the MALDI plate, dried, and Matrix (alpha-cyanocinnamic acid, Sigma, prepared as a saturated solution in 1:1 acetonitrile:water containing 0.1% trifluoroacetic acid) was layered over the sample (1 μL), dried and analysed using the MALDI TOF. […]
In an effort to understand the chemical nature of the degradation of 17-69-07-N219 in mouse plasma, samples were analysed using MALDI-TOF for any potential degradation products.

rat plasma = conditions: up to 24 hrs
human plasma = conditions: up to 24 hrs
mouse plasma = conditions: up to 24 hrs
[8] = target: T2, hemopexin domain of MT1-MMP (Homo sapiens, UniProt P50281); assay: Hemopexin binding assay using the alpha screen; conditions: qualitative
T2 construct: residues Cys319-Gly511 from the human gene; His6 (N); made in house; host or cells: HEK293 (transient), pEXPR-IBA42 vector
Description: Employing previously established methods for generating bicyclic peptide phage libraries, selections were performed against the human hemopexin domain of MT1-MMP.
The most frequently occurring sequences were assayed for Hemopexin binding using the alpha screen, where all signals were high compared to the original 17-69 sequence (see Table 1 and FIG. 14): […]

[9] = plasma samples taken at t=0.5, 1 and 2 hrs from intravenously dosed mice; conditions: male CD1 mice, up to 2 hrs
[10] = plasma samples from mice dosed intravenously (0.5, 1 and 2 hrs); conditions: male CD1 mice, up to 2 hrs

Compound	degradation half-life in human plasma [1]	reduction in sensitivity to a reducing agent such as dithiothreitol (compared to the non-hindered disulphide) [2]	Relative Stability to DTT (ADC) [2]	Relative Stability to DTT (BDC) [3]	t1/2 (hrs) (rat plasma) [4]	t1/2 (hrs) (mouse plasma) [5]	efficacy, tumour clearance [6]	tolerability, body weight [6]	also measured
COc1cc2cc(c1Cl)N(C)C(=O)C[C@H](OC(=O)[C@H](C)N(C)C(=O)CCC(C)(C)SSCCCC(=O)NCCC(=O)N(C)CC(=O)N(C)CC(=O)N(C)CC(=O)N(C)CC(=O)N(C)CC(=O)N(C)CC(=O)N(C)CC(=O)N(C)CC(=O)N(C)CC(=O)N(C)CC(=O)N[C@@H](C)C(=O)N[C@H]1CSCc3cc4cc(c3)CSC[C@H](NC(=O)[C@@H](C)NC(=O)[C@H](Cc3cccc5ccccc35)NC(=O)[C@H](CCC(=O)O)NC(=O)[C@H](CC(N)=O)NC(=O)[C@@H](C)NC1=O)C(=O)N[C@@H](CCC(=O)O)C(=O)N[C@@H](CC(=O)O)C(=O)N[C@@H](Cc1ccccc1)C(=O)N[C@@H](Cc1ccc(O)cc1)C(=O)N[C@@H](CC(=O)O)C(=O)N[C@@H](C(C)(C)C)C(=O)N[C@H](C(N)=O)CSC4)[C@]1(C)O[C@H]1[C@H](C)[C@@H]1C[C@@](O)(NC(=O)O1)[C@H](OC)/C=C/C=C(\C)C2 [BT17BDC-19] ({X1-βAla}-[Sar][Sar][Sar][Sar][Sar][Sar][Sar][Sar][Sar][Sar]AC[dA]NE[1Nal][dA]CEDFYD[Tle]C-NH2; linker 12-18-25 via TBMB)	> 14 h	14 fold	14	30	>36 h	>36 h	efficacious and cleared tumours in 9 days	well tolerated at efficacious doses	Kd (MT1-MMP hemopexin domain; footnote e: 17-69-07-N004 as tracer in FP competition): 0.5 nM
CC[C@H](C)[C@@H]1NC(=O)[C@H](CC(=O)O)NC(=O)[C@H](Cc2ccc(O)cc2)NC(=O)[C@H](Cc2ccccc2)NC(=O)[C@H](CC(=O)O)NC(=O)[C@H](CCC(=O)O)NC(=O)[C@@H]2CSCc3cc(cc(c3)CSC[C@H](NC(=O)[C@H](C)NC(=O)CN(C)C(=O)CN(C)C(=O)CN(C)C(=O)CN(C)C(=O)CN(C)C(=O)CN(C)C(=O)CN(C)C(=O)CN(C)C(=O)CN(C)C(=O)CN(C)C(=O)CN)C(=O)N[C@@H](Cc3ccc(O)cc3)C(=O)N[C@@H](CC(N)=O)C(=O)N[C@@H](CCC(=O)O)C(=O)N[C@@H](Cc3ccccc3)C(=O)NCC(=O)N2)CSC[C@@H](C(N)=O)NC1=O [17-69-07-N219, G-Sar10-A-(17-69-07)] (H-G[Sar][Sar][Sar][Sar][Sar][Sar][Sar][Sar][Sar][Sar]ACYNEFGCEDFYDIC-NH2; linker 13-19-26 via TBMB)	–	–	–	–	3.7 ± 0^ hrs	3.9 ± 0.3 h	–	–	degradation products [7]: possible loss of tyrosine; species cross-reactivity (MT1-MMP hemopexin domain; murine, dog, cynomolgus and human MT1-MMP): fully cross reactive; half-life in mouse plasma ([5]; ex vivo mouse plasma at 37° C. (FIG. 1, FIG. 3A)): 6 h
βAla-Sar10-A-C(D-Ala)NE(1Nal)(D-Ala)CEDFYD(tBuGly)C	–	–	–	–	–	–	–	–	not cleaved (rat plasma): stable; t1/2 >36 hrs (rat plasma); not cleaved (human plasma): stable; t1/2 >36 hrs (human plasma); not cleaved (mouse plasma): stable; t1/2 >36 hrs (mouse plasma)
CC[C@H](C)[C@@H]1NC(=O)[C@H](CC(=O)O)NC(=O)[C@H](Cc2ccc(O)cc2)NC(=O)[C@H](Cc2ccccc2)NC(=O)[C@H](CC(=O)O)NC(=O)[C@H](CCC(=O)O)NC(=O)[C@@H]2CSCc3cc(cc(c3)CSC[C@H](N)C(=O)N[C@@H](CCCCN)C(=O)N[C@@H](CC(N)=O)C(=O)N[C@@H](CCCNC(=N)N)C(=O)NCC(=O)N[C@@H](Cc3ccccc3)C(=O)NCC(=O)N2)CSC[C@@H](C(N)=O)NC1=O [Peptide 17-69] (H-CKNRGFGCEDFYDIC-NH2; linker 1-8-15 via TBMB)	–	–	–	–	–	–	–	–	alpha screen binding signal [8]: qualitative binding to the target was verified
COc1cc2cc(c1Cl)N(C)C(=O)C[C@H](OC(=O)[C@H](C)N(C)C(=O)CCC(C)SSC(C)CCC(=O)NCCC(=O)N(C)CC(=O)N(C)CC(=O)N(C)CC(=O)N(C)CC(=O)N(C)CC(=O)N(C)CC(=O)N(C)CC(=O)N(C)CC(=O)N(C)CC(=O)N(C)CC(=O)N[C@@H](C)C(=O)N[C@H]1CSCc3cc4cc(c3)CSC[C@H](NC(=O)[C@@H](C)NC(=O)[C@H](Cc3cccc5ccccc35)NC(=O)[C@H](CCC(=O)O)NC(=O)[C@H](CC(N)=O)NC(=O)[C@@H](C)NC1=O)C(=O)N[C@@H](CCC(=O)O)C(=O)N[C@@H](CC(=O)O)C(=O)N[C@@H](Cc1ccccc1)C(=O)N[C@@H](Cc1ccc(O)cc1)C(=O)N[C@@H](CC(=O)O)C(=O)N[C@@H](C(C)(C)C)C(=O)N[C@H](C(N)=O)CSC4)[C@]1(C)O[C@H]1[C@H](C)[C@@H]1C[C@@](O)(NC(=O)O1)[C@H](OC)/C=C/C=C(\C)C2 (stereo partly drawn) [BT17BDC-20] ({X2-βAla}-[Sar][Sar][Sar][Sar][Sar][Sar][Sar][Sar][Sar][Sar]AC[dA]NE[1Nal][dA]CEDFYD[Tle]C-NH2; linker 12-18-25 via TBMB)	> 14 h	170 fold	170	93	34 ± 4 h	>36 h	not efficacious and only caused a marginal reduction in tumour sizes	tolerated based on constant weight	t1/2 (hrs) (human plasma) ([1]; Table 16, incubation up to 24 hrs, 4 μM): 32 ± 1 h; Kd (MT1-MMP hemopexin domain; footnote f: 17-69-07-N040 as tracer in FP competition): 2.95 ± 1.3 nM
Ac-CYNEFGCEDFYDIC	–	–	–	–	–	–	–	–	fragment found [9]: excision of YNE in loop 1, major; also recorded: excision of YNEF in loop 1; also recorded: excision of YNEFG in loop 1 (the entire loop is removed); also recorded: excision of YD in loop 2, minor; also recorded: excision of FYD in loop 2, minor; also recorded: excision of YDI in loop 2, minor; also recorded: excision of EDFYDI in loop 2 (the entire loop is removed), minor; fragment found [10]: excision of YNEFG in loop 1 (entire loop removed); also recorded: excision of EDFYDI in loop 2 (entire loop removed), minor
